The results in this text go back to patent US20240067734A1 (Hoffmann-La Roche, published 2024).

Assay [1] concerns the target T1, human NKG2D expressed on cells (human, UniProt P26718 1-216).
T1 construct: the cell type is named under assay; also called NKG2D on NK92 cells; HEK293T human NKG2D
T1 chain: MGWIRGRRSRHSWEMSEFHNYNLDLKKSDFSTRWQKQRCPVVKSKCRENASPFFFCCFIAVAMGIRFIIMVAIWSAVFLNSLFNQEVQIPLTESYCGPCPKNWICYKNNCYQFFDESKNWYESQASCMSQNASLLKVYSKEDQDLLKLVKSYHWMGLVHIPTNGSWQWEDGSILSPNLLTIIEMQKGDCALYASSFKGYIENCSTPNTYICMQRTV
Briefly: flow cytometry on NKG2D-positive NK92 cells, anti-human Fc secondary antibody.

In assay [2] the target is T1, human NKG2D expressed on cells. The description is as above. How it is done: Viability of NK92 cells or tumor cells (MKN-45, LS180) was checked and cells were re-suspended and adjusted to a density of 1 mio cells/ml. 100 μl per well of this cell suspension (containing 0.1 mio cells) were seeded into a 96 well round bottom plate. The plate was centrifuged for 4 min at 400×g and the supernatant was removed. Then 40 μl of the diluted antibodies or FACS buffer were added to the cells and incubated for 30 min at 4° C. After the incubation the cells were washed twice with 150 μl FACS buffer per well. […] The cells were incubated for an additional 30 min at 4° C. To remove unbound antibody, the cells were washed again twice with 150 μl per well FACS buffer. To fix the cells, 100 μl of FACS buffer containing 1% PFA were added to the wells. Before measuring, the cells were re-suspended in 150 μl FACS buffer. The fluorescence was measured using a BD flow cytometer.

Assay [3] has the same target. Briefly: flow cytometry on NK92 cells, PE anti-human Fc secondary antibody. The protocol:
The anti-NKG2D antibodies P1AE4980, C26 and ADI27743 from Example 21 were tested for binding to NKG2D on NK92 cells.
Viability of NK92 cells was checked and cells were re-suspended and adjusted to a density of 1.5 mio cells/ml. 100 μl of this cell suspension (containing 0.15 mio cells) were seeded into a 96 well round bottom plate. The plate was centrifuged for 4 min at 400×g and the supernatant was removed. Then 40 μl of the diluted antibodies or FACS buffer were added to the cells and incubated for 30 min at 4° C. After the incubation the cells were washed twice with 150 μl FACS buffer per well. […] The cells were incubated for an additional 30 min at 4° C. To remove unbound antibody the cells were washed again twice with 150 μl per well FACS buffer. For the measurement, the cells were re-suspended in 150 μl FACS buffer. The fluorescence was measured using a BD flow cytometer.

In assay [4] the target is T2, mono huNKG2D ECD Fc kh avi (human, UniProt P0DOX5 223-449 = IgG part, biotinylated at the avi-tag).
T2 construct: Monovalent human NKG2D ECD fused to the C-terminus of an avi-tagged human IgG1 Fc knob chain, paired with an empty Fc hole chain
Briefly: SPR ProteOn; antigen on NLC chip, Fab analyte. How it is done:
(§1) This incubation step was repeated once with 25 ml of a 5 mM MgSO₄ solution. The supernatants of both incubation steps were pooled, filtered and loaded on an IMAC column (His[…]™, GE Healthcare). Subsequently, the column was washed with 40 ml washing buffer (500 mM NaCl, 20 mM imidazole, 20 mM NaH2PO₄ pH 7.4). After the elution (500 mM NaCl, 500 mM imidazole, 20 mM NaH₂PO₄ pH 7.4) the eluate was re-buffered using PD10 columns (GE Healthcare).
(§2) Immobilization of recombinant antigens (ligand): Antigens were diluted with PBST (10 mM phosphate, 150 mM sodium chloride pH 7.4, 0.005% TWEEN® (polysorbate) 20) to 10 μg/ml, then injected at 30 μl/minute at varying contact times in vertical orientation for immobilization. […] Buffer (PBST) was injected along the sixth channel to provide an “in-line” blank for referencing. Association rate constants (kₒₙ) and dissociation rate constants (koff) were calculated using a simple one-to-one Langmuir binding model in PROTEON™ Manager v3.1 software by simultaneously fitting the association and dissociation sensorgrams. The equilibrium dissociation constant (KD) was calculated as the ratio koff/kₒₙ. Cross-reactivity of clones 5C5 and 13C6 to cynomolgus NKG2D, i.e. binding to di cyNKG2D ECD Fc avi, was assessed on IgG level (see Example 9).

Assay [5] concerns the target T3, di huNKG2D ECD Fc avi (human, biotinylated at the avi-tag).
T3 construct: Dimeric fusion of human NKG2D ECD to the C-terminus of an avi-tagged human IgG1 Fc
Briefly: SPR ProteOn; antigen on NLC chip, Fab analyte. How it is done: as §1, §2

Usually EC50 (read off the curve) stands for the concentration that produces a half-maximal response. A low value points to a more potent agent. By Kd is commonly meant the constant that tells how readily two partners part at equilibrium. The koff is the rate constant with which the complex falls apart. Higher therefore signals a short-lived complex. Broadly, the kon is the second-order rate constant of association. Lower therefore signals slower complex formation.

Like-named read-outs stand apart in the source and are kept apart here.

B1: NKG2D×CEA bispecific antibody, anti-NKG2D 320 / anti-CEA B9, J format (bispecific antibody, V domains shown)
VH 1: EVQLLESGGGLVQPGGSLRLSCATSGFTFSDYAMSWVRQAPGKGLEWVSYNSFSVGSTDYADSVKGRFTISRDNSKNTLYLQMNSLRAEDTAVYYCSKHSGNYYTGPFHYWGQGTLVTVSS
VL 1: DIQLTQSPSFLSASVGDRVTITCRASQGISSYLAWYQQKPGKAPKLLIYAASSLESGVPSRFSGSGSGTDFTLTISSLQPEDFATYYCQQSYSTPITFGQGTRLEIK
VH 2: VQLVESGGGLVQPGRSLRLSCAASGFTVSSYWMHWVRQAPGKGLEWVGFIRNKANGGTTEYAASVKGRFTISRDDSKNTLYLQMNSLRAEDTAVYYCARDRGLRFYFDYWGQGTTVTVSS
VL 2: QAVLTQPASLSASPGASASLTCTLRRGINVGAYSIYWYQQKPGSPPQYLLRYKSDSDKQQGSGVSSRFSASKDASANAGILLISGLQSEDEADYYCMIWHSGASAVFGGGTKLTVL
notes: also called format J (320); tetravalent construct J
Turning to B1, in assay [1], the “EC50 (read off the curve)” value is about 6 nM.

B2: NKG2D×CEA bispecific antibody, anti-NKG2D 395 (C50S) / anti-CEA B9, I format (bispecific antibody, V domains shown)
VH 1: QEQLEQSGGGLVTPGGSLKLCCTASGFDFNTFWMTWVRQAPGKGLEWIGSIHGGSGSRDYASWVNGRFTLSRDIDQSTACLQVNSLTAADTAMYYCARPGYRSWSKTFDLWGQGTMVTVSS
VL 1: DIQMTQSPSSLSASVGDRVTITCRASQDISGALNWYQQKPGKAPNLLIYAASSLQSGVPSRFSGSGSGTDYTLTISSLQPEDFATYYCQQANSFPLTFGGGTKVEIK
VH 2: B1 VH 2
VL 2: B1 VL 2
notes: also called bivalent I format
For B2, the “EC50 (read off the curve)” value in assay [2] is about 2 nM.

B3: NKG2D×CEA bispecific antibody, anti-NKG2D 320 / anti-CEA B9, I format (bispecific antibody, V domains shown)
VH 1: B1 VH 1
VL 1: B1 VL 1
VH 2: B1 VH 2
VL 2: B1 VL 2
notes: also called format I (320); I format with antibody 320
As for B3, in assay [1], the “EC50 (read off the curve)” value is about 10 nM.

B4: anti-NKG2D antibody C26 IgG (PG LALA) (antibody, V domains shown)
VH: QVQLQQWGAGLLKPSETLSLTCAVYGGSFSGYYWSWIRQPPGKGLEWIGEIDHSGSTNYNPSLKSRVTISVDTSKNQFSLKLSSVTAADTAVYYCARARGPWSFDPWGQGTLVTVSS
VL: DIQMTQSPSTLSASVGDRVTITCRASQSISSWLAWYQQKPGKAPKLLIYKASSLESGVPSRFSGSGSGTEFTLTISSLQPDDFATYYCQQYGSFPITFGGGTKVEIKR
notes: Human IgG1 with PGLALA; variable domains from WO 2018/148445
As for B4, the binding result in assay [3] is “binds”.

B5: anti-NKG2D antibody ADI27743 IgG (PG LALA) (antibody, V domains shown)
VH: B4 VH
VL: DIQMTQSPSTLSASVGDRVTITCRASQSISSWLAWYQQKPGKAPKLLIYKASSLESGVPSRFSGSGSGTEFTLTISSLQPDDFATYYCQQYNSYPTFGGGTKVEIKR
notes: as for B4
For the molecule B5, in assay [3], the binding result is “binds”.

B6: anti-NKG2D antibody P1AE4980 (IgG) (antibody, V domains shown)
VH: QEQLVQSGAEVKKPGESLKISCKGSGFDFNTFWMTWVRQMPGKGLEWMGSIHGGSGSRDYSPSFQGQVTISADIDQSTAYLQWSSLKASDTAMYYCARPGYRSWSKTFDLWGQGTTVTVSS
VL: B2 VL 1
notes: Tested as IgG beside C26 and ADI27743 (human IgG1 PGLALA)
For B6, in assay [3], the binding result is “binds”.

B7: anti-NKG2D clone 13C6 Fab (Fab, V domains shown)
VH: EVQLVQSGAEVKKPGESLKISCKGSGYSFTSYWIGWVRQMPGKGLEWMGIIYPGDSDTRYSPSFQGQVTISADKSISTAYLQWSSLKASDTAMYYCARLYPVGVYFDYWGQGTLVTVSS
VL: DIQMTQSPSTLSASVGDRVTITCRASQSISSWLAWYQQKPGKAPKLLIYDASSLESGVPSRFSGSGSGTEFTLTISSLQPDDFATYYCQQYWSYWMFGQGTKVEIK
notes: Phage-display Fab purified from E. coli by IMAC (Flag-tagged)
In assay [4], B7 gave a Kd of 79 nM, a koff of 0.00096 s⁻¹ and a kon of 12000 M⁻¹ s⁻¹. Also, in assay [5], the Kd is 74 nM, the koff was determined as 0.0007 s⁻¹ and the kon amounted to 9500 M⁻¹ s⁻¹.

B8: anti-NKG2D clone 5C5 Fab (Fab, V domains shown)
VH: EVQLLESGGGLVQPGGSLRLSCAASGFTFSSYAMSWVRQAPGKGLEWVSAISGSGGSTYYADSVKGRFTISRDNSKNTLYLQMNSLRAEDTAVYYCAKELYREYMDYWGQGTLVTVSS
VL: SSELTQDPAVSVALGQTVRITCQGDSLRSYYASWYQQKPGQAPVLVIYGKNNRPSGIPDRFSGSSSGNTASLTITGAQAEDEADYYCNSRDSFSIHQNVFGGGTKLTVL
notes: as for B7
In assay [4], B8 displayed a Kd of 15 nM, a koff of 0.0055 s⁻¹ and a kon of 360000 M⁻¹ s⁻¹. Besides, in assay [5], the Kd came out at 22 nM, the koff came out at 0.0056 s⁻¹ and the kon amounted to 250000 M⁻¹ s⁻¹.
